Data from paper doi:10.1101/2024.08.08.606885.

Tests used:
[1] = biological target: SARS-CoV-2 JN.1 RBD (SARS-CoV-2) (UniProt P0DTC2); assay: BLI; […]; 10x kinetics buffer, […]; global fit, 1:1 binding model; […]
[2] = biological target: SARS-CoV-2 BA.2.86 S (Acro Biosystems, SPN-C524y) (SARS-CoV-2); assay: cryo-EM structure

Work on “TRI2-2 homotrimeric miniprotein inhibitor (designed binder)” yielded a Kd [1] of 6.19 nM, a koff [1] of 0.00175 s⁻¹ and a kon [1] of 282000 M⁻¹ s⁻¹.
“SARS-CoV-2 BA.2.86 S (Acro Biosystems, SPN-C524y) (domain or fragment)” showed a stoichiometry N [2] of 3.
